Experimental data published in IntAct's records for PubMed 38141762.

B1: Mitochondrial association factor 1 form b1 (Toxoplasma gondii), A0A140H546 (parent)
chain: MWRIWRCRLSFLFATGCLLGALTAGLGSQMSDSVGRNVQAPAGVADASQEAGDVVEERTERTEEQAFALGPPRRHSSESLFPRNASVTARRRRNRRIALIATAVGVAVILAAVYVLRRRRAQRPQDPEPPAPRSVEDPEVLPEEDEASSSLPPPPPPSPPPPPPVEDPLSPESQTVDLSCLSGTTVRFFGPSHHFGGFTPLYDPAPDKRVATVDAGANALFIGGGGLNGQFAKTLLEEAEKHGIRLTPEELSQHSQRIQQSLLRRAVKSPGKLVELDTGVASPVFARSFGFVPVVPGLMWEESEVGPNVGVTFVHILKPEVTPYGNLNNNVMMYTVAPSGAAPDKTYSLAYKTTIAGVIGAAAAYNDTPAGQQYPVQGLRLPLLGGGIFRRNRSLESIGRANAEGTSLAITRYGPNFELQYMYDPSNAALHGLQEAESTYLASMLD

Variants of: B1
Conditions: with RALGAPA1, Q6GYQ0-1
Sequence of RALGAPA1, Q6GYQ0-1 (Q6GYQ0 whole entry): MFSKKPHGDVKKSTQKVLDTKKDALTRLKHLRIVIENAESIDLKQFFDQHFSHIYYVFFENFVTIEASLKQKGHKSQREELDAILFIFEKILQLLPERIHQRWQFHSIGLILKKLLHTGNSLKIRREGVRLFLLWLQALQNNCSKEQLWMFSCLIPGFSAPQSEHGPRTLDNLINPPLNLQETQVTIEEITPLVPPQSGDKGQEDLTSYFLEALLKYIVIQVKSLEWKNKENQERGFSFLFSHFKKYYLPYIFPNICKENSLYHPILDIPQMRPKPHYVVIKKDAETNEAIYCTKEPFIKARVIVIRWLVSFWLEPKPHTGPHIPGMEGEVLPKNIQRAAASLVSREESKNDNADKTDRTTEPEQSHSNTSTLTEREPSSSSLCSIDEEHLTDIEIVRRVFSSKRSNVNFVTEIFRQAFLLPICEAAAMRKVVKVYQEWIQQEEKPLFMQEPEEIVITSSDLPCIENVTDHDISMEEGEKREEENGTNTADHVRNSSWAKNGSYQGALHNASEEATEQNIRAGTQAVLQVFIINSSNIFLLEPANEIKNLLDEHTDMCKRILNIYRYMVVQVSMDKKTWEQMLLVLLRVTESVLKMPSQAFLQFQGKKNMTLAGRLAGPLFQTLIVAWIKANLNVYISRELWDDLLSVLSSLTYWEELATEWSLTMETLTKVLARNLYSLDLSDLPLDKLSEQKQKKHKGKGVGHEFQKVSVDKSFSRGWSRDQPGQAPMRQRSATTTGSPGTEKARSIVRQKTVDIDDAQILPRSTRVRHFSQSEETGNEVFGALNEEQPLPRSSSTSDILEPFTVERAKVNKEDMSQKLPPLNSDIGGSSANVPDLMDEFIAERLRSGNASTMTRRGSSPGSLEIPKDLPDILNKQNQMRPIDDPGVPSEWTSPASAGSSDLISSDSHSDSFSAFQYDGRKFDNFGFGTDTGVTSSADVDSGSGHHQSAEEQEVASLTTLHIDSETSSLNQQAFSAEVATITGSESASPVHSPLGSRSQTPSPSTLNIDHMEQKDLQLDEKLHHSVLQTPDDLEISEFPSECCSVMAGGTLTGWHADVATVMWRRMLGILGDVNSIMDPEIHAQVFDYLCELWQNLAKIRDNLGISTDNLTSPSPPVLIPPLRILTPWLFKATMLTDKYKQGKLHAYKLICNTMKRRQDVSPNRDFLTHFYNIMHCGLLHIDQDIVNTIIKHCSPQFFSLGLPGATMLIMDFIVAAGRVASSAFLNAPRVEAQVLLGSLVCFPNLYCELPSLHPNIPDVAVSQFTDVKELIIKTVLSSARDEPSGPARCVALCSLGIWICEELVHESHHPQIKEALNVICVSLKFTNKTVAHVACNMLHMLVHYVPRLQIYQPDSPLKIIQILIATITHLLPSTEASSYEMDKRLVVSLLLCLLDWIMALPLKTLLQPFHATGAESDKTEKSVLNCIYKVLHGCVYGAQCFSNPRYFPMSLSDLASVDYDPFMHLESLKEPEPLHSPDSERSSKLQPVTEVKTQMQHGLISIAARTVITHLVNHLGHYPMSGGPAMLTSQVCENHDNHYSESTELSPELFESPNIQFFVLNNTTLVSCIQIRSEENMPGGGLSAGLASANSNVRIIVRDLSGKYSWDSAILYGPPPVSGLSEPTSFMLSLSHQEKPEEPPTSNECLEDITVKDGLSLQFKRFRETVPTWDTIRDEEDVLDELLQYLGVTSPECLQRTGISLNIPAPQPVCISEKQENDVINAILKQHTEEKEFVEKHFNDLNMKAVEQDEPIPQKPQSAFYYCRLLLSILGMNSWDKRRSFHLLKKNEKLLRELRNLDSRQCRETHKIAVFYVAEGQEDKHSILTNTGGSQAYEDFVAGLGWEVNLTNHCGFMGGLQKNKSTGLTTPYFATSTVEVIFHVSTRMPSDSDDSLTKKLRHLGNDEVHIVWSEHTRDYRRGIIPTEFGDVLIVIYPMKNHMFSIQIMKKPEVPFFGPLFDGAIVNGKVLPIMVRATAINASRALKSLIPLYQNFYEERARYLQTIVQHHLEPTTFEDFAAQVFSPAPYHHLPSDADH

Q: With MWRIWRCRLSFLFATGCLLGALTAGLGSQMSDSVGRNVQAPAGVADASQEAGDVVEERTERTEEQAFALGPPRRHSSESLFPRNASVTARRRRNRRIALIATAVGVAVILAAVYVLRRRRAQRPQDPEPPAPRSVEDPEVLPEEDEASSSLPPPPPPSPPPPPPVEDPLSPESQTVDLSCLSGTTVRFFGPSHHFGGFTPLYDPAPDKRVATVDAGANALFIGGGGLNGQFAKTLLEEAEKHGIRLTPEELSQHSQRIQQSLLRRAVKSPGKLVELDTGVFSPVFARSFGFVPVVPGLMWEESEVGPNVGVTFVHILKPEVTPYGNLNNNVMMYTVAPSGAAPDKTYSLAYKTTIAGVIGAAAAYNDTPAGQQYPVQGLRLPLLGGGIFRRNRSLESIGRANAEGTSLAITRYGPNFELQYMYDPSNAALHGLQEAESTYLASMLD [A281F] as the variant, how does the “effect of a mutation on the interaction” value read?
A: Its value is “disrupting interaction strength”.

Q: With MWRIWRCRLSFLFATGCLLGALTAGLGSQMSDSVGRNVQAPAGVADASQEAGDVVEERTERTEEQAFALGPPRRHSSESLFPRNASVTARRRRNRRIALIATAVGVAVILAAVYVLRRRRAQRPQDPEPPAPRSVEDPEVLPEEDEASSSLPPPPPPSPPPPPPVEDPLSPESQTVDLSCLSGTTVRFFGPSHHFGGFTPLYDPAPDKRVATVDAGANALFIGGGGLNGQFAKTLLEEAEKHGIRLTPEELSQHSQRIQQSLLRRAVKSPGKLVELDTGVASPVFARSFGFVPVVPGLMWEESEVGPNVGVTFVHILKPEVTPYGNLNNNVMMYTVAPSGAAPDKTYSLAYKTTIAGVIGAAAAYNDTPAGQQYPVQGLRLPLLGGGIFRRNRSLESIGRANAEGTSLAITRYGPNFELQYMYDPSNAALHGLQEAERTYKASMLD [S438R;L441K] as the variant, how does the “effect of a mutation on the interaction” value read?
A: Its value is “with no effect”.

Q: Which “effect of a mutation on the interaction” value does the source give for MWRIWRCRLSFLFATGCLLGALTAGLGSQMSDSVGRNVQAPAGVADASQEAGDVVEERTERTEEQAFALGPPRRHSSESLFPRNASVTARRRRNRRIALIATAVGVAVILAAVYVLRRRRAQRPQDPEPPAPRSVEDPEVLPEEDEASSSLPPPPPPSPPPPPPVEDPLSPESQTVDLSCLSGTTVRFFGPSHHFGGFTPLYDPAPDKRVATVDAGANALFIGGGGLNGQFAKTLLEEAEKHGIRLTPEELSQHSQRIQQSLLRRAVKSPGKLVELDTGVASPVFARSFGFVPVVPGLMWEESEVGPNVGVTFVHILKPEVTPYGNLNNNVMMYTVAPSGAAPDKTYSLAYKTTIAGVIGAAAAYNDTPAGQQYPVQGLRLPLLGGGIFRRNRSLESIGRANAEGTSLAITRYGPNFELQYMYDPSNAALHGLQEAERKYKASMLD [S438R;T439K;L441K] here?
A: The value was “with no effect”.

Q: Which “effect of a mutation on the interaction” value does the source give for MWRIWRCRLSFLFATGCLLGALTAGLGSQMSDSVGRNVQAPAGVADASQEAGDVVEERTERTEEQAFALGPPRRHSSESLFPRNASVTARRRRNRRIALIATAVGVAVILAAVYVLRRRRAQRPQDPEPPAPRSVEDPEVLPEEDEASSSLPPPPPPSPPPPPPVEDPLSPESQTVDLSCLSGTTVRFFGPSHHFGGFTPLYDPAPDKRVATVDAGANALFIGGGGLNGQFAKTLLEEAEKHGIRLTPEELSQHSQRIQQSLLRRAVKSPGKLVELDTGRASPVFARSFGFVPVVPGLMWEESEVGPNVGVTFVHILKPEVTPYGNLNNNVMMYTVAPSGAAPDKTYSLAYKTTIAGVIGAAAAYNDTPAGQQYPVQGLRLPLLGGGIFRRNRSLESIGRANAEGTSLAITRYGPNFELQYMYDPSNAALHGLQEAESTYLASMLD [V280R] here?
A: Its value is “disrupting interaction strength”.

Q: How did the “effect of a mutation on the interaction” value turn out when MWRIWRCRLSFLFATGCLLGALTAGLGSQMSDSVGRNVQAPAGVADASQEAGDVVEERTERTEEQAFALGPPRRHSSESLFPRNASVTARRRRNRRIALIATAVGVAVILAAVYVLRRRRAQRPQDPEPPAPRSVEDPEVLPEEDEASSSLPPPPPPSPPPPPPVEDPLSPESQTVDLSCLSGTTVRFFGPSHHFGGFTPLYDPAPDKRVATVDAGANALFIGGGGLNGQFAKTLLEEAEKHGIRLTPEELSQHSQRIQQSLLRRAVKSPGKLVELDTGVASRVFARSFGFVPVVPGLMWEESEVGPNVGVTFVHILKPEVTPYGNLNNNVMMYTVAPSGAAPDKTYSLAYKTTIAGVIGAAAAYNDTPAGQQYPVQGLRLPLLGGGIFRRNRSLESIGRANAEGTSLAITRYGPNFELQYMYDPSNAALHGLQEAESTYLASMLD [P283R] was run?
A: Its value is “disrupting interaction strength”.

Variants of: B1
Conditions: with RALGAPA1, Q6GYQ0-1
Remark: another data set of the same source

Q: Which “effect of a mutation on the interaction” value does the source give for MWRIWRCRLSFLFATGCLLGALTAGLGSQMSDSVGRNVQAPAGVADASQEAGDVVEERTERTEEQAFALGPPRRHSSESLFPRNASVTARRRRNRRIALIATAVGVAVILAAVYVLRRRRAQRPQDPEPPAPRSVEDPEVLPEEDEASSSLPPPPPPSPPPPPPVEDPLSPESQTVDLSCLSGTTVRFFGPSHHFGGFTPLYDPAPDKRVATVDAGANALFIGGGGLNGQFAKTLLEEAEKHGIRLTPEELSQHSQRIQQSLLRRAVKSPGKLVELDTGVASPVFARSFGFVPVVPGLMWEESEVGPNVGVTFVHILKPEVTPYGNLNNNVMMYTVAPSGAAPDKTYSLAYKTTIAGVIGAAAAYNDTPAGQQYPVQGLRLPLLGGGIFRRNRSLESIGRANAEGTSLAITRYGPNFELQYMYDPSNAALHGLQEAERTYKASMLD [S438R;L441K] here?
A: Its value is “decreasing interaction strength”.

Q: With MWRIWRCRLSFLFATGCLLGALTAGLGSQMSDSVGRNVQAPAGVADASQEAGDVVEERTERTEEQAFALGPPRRHSSESLFPRNASVTARRRRNRRIALIATAVGVAVILAAVYVLRRRRAQRPQDPEPPAPRSVEDPEVLPEEDEASSSLPPPPPPSPPPPPPVEDPLSPESQTVDLSCLSGTTVRFFGPSHHFGGFTPLYDPAPDKRVATVDAGANALFIGGGGLNGQFAKTLLEEAEKHGIRLTPEELSQHSQRIQQSLLRRAVKSPGKLVELDTGVASPVFARSFGFVPVVPGLMWEESEVGPNVGVTFVHILKPEVTPYGNLNNNVMMYTVAPSGAAPDKTYSLAYKTTIAGVIGAAAAYNDTPAGQQYPVQGLRLPLLGGGIFRRNRSLESIGRANAEGTSLAITRYGPNFELQYMYDPSNAALHGLQEAERKYKASMLD [S438R;T439K;L441K] as the variant, how does the “effect of a mutation on the interaction” value read?
A: The value was “decreasing interaction strength”.
